Laboratory results reported in patent publication US20250161478A1 (GLYKOS FINLAND, published 2025).
Read-outs that look alike come from different tables or passages of the source.

How the values were obtained:
Assay in all cases: cell-based or functional assay
[1] = biological target: T1, TYRP1 antigen on human melanoma cells (IGR-1, SK-MEL-30, SK-MEL-28) (human, UniProt P17643 25-537)
[2] = biological target: T1, TYRP1 antigen on human melanoma cells …; remark: listed apart in the source
[3] = biological target: T1, TYRP1 antigen on human melanoma cells …; remark: listed apart in the source
[4] = biological target: T2, CD33 on leukemia cell lines (HL-60, MOLM-13, KG-1, K-562) (UniProt P20138 18-364, limits assumed)
[5] = biological target: T2, CD33 on leukemia cell lines (HL-60, …); remark: listed apart in the source
[6] = biological target: T2, CD33 on leukemia cell lines (HL-60, …); remark: listed apart in the source
[7] = biological target: T1, TYRP1 antigen on human melanoma cells …; remark: listed apart in the source
[8] = biological target: T1, TYRP1 antigen on human melanoma cells …; remark: listed apart in the source
[9] = biological target: T1, TYRP1 antigen on human melanoma cells …; remark: listed apart in the source

T2 sequence (P20138 18-364 limits assumed): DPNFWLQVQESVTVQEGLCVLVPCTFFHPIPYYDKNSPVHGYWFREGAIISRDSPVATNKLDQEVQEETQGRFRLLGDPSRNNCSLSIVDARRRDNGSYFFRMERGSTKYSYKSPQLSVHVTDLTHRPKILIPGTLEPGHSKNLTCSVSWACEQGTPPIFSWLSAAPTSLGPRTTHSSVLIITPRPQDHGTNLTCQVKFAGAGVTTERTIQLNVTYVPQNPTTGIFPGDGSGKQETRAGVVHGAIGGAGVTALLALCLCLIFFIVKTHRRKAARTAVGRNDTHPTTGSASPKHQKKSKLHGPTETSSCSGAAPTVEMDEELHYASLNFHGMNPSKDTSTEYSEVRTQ

B1: CHPeD (glycoconjugated chimeric TA99-DBCO-Val-Ser(GlcA)-EDA-PNU ADC), DAR 2 (antibody, human IgG1, kappa, V domains shown)
VH: EVQLQQSGAELVRPGALVKLSCKTSGFNIKDYFLHWVRQRPDQGLEWIGWINPDNGNTVYDPKFQGTASLTADTSSNTVYLQLSGLTSEDTAVYFCTRRDYTYEKAALDYWGQGTTVTVST
VL: IQMSQSPASLSASVGETVTITCRASGNIYNYLAWYQQKQGKSPHLLVYDAKTLADGVPSRFSGSGSGTQYSLKISSLQTEDSGNYYCQHFWSLPFTFGSGTKLEIKR
modifications: DBCO-Val-Ser(GlcA)-EDA-PNU on GalNAz of the trimmed Fc N-glycan; DAR 2
IC50, cell viability (PrestoBlue), IGR-1 cells [1]: 1.4 nM
IC50, cell viability (PrestoBlue), SK-MEL-28 cells [1]: 55 nM
IC50, cell viability (PrestoBlue), SK-MEL-30 cells [1]: 5.7 nM

B2: CHAuM (chimeric TA99-maleimidoacetyl-β-Ala-Val-Ser(Glc)-PAB-MMAU), DAR 6 (antibody, human IgG1, kappa, V domains shown)
VH: B1 VH
VL: B1 VL
modifications: AuM linker-payload on reduced interchain cysteine; AuM linker-payload (maleimidoacetyl-β-Ala-Val-Ser(Glc)-PAB-MMAU) on reduced interchain cysteines; DAR 6 in all
IC50, cell viability (PrestoBlue), IGR-1 cells [2]: 2.2 nM
IC50, cell viability (PrestoBlue), SK-MEL-28 cells [2]: > 300 nM
IC50, cell viability (PrestoBlue), SK-MEL-30 cells [2]: 48 nM

B3: FLCPeMa (cysteine engineered flanvotumab HC N299C conjugated with MA-Ac-EDA-PNU), DAR 1.7 (antibody, human IgG1, kappa)
heavy: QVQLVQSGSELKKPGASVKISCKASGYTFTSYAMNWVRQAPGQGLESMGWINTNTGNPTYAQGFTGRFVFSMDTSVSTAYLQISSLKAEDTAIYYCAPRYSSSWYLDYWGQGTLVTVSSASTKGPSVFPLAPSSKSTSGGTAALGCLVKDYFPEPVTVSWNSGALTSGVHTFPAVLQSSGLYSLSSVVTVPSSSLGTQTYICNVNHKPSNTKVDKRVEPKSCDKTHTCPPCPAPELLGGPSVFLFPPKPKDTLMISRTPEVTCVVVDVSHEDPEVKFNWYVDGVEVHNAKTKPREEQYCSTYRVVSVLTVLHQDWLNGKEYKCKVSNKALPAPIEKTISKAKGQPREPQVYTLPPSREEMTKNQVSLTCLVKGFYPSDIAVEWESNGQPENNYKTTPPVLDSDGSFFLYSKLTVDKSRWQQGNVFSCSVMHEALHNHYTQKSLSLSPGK
light: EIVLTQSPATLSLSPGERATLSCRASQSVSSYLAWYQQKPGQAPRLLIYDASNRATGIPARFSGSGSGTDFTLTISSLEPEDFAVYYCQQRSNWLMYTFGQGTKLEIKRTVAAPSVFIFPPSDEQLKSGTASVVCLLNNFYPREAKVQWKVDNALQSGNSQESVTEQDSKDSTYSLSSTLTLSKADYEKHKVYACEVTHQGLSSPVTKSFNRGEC
modifications: PeMa linker-payload (maleimidoacetyl-EDA-PNU) on the engineered cysteine (N299C); DAR 1.7
IC50, cell viability (PrestoBlue), IGR-1 cells [3]: 1.2 nM
IC50, cell viability (PrestoBlue), SK-MEL-30 cells [3]: 22 nM

B4: GMAuM (gemtuzumab-maleimidoacetyl-β-Ala-Val-Ser(Glc)-PAB-MMAU), DAR 8 (antibody, human IgG4 S228P, kappa, V domains shown)
VH: EVQLVQSGAEVKKPGSSVKVSCKASGYTITDSNIHWVRQAPGQSLEWIGYIYPYNGGTDYNQKFKNRATLTVDNPTNTAYMELSSLRSEDTAFYYCVNGNPWLAYWGQGTLVTVSS
VL: DIQLTQSPSTLSASVGDRVTITCRASESLDNYGIRFLTWFQQKPGKAPKLLMYAASNQGSGVPSRFSGSGSGTEFTLTISSLQPDDFATYYCQQTKEVPWSFGQGTKVEVKR
modifications: AuM linker-payload on reduced interchain cysteine; AuM linker-payload (maleimidoacetyl-β-Ala-Val-Ser(Glc)-PAB-MMAU) on reduced interchain cysteines; DAR 8.0 in all
IC50, cytotoxicity, HL-60 cells, 5 days [4]: 0.583 nM
IC50, cytotoxicity, K-562 (low CD33) cells, 3 days [4]: 241 nM
IC50, cytotoxicity, MOLM-13 cells, 3 days [4]: 0.206 nM

B5: LNCAuM (cysteine engineered lintuzumab HC N296C-maleimidoacetyl-β-Ala-Val-Ser(Glc)-PAB-MMAU), DAR 1.7 (antibody, human IgG1, kappa, V domains shown)
VH: QVQLVQSGAEVKKPGSSVKVSCKASGYTFTDYNMHWVRQAPGQGLEWIGYIYPYNGGTGYNQKFKSKATITADESTNTAYMELSSLRSEDTAVYYCARGRPAMDYWGQGTLVTVSS
VL: DIQMTQSPSSLSASVGDRVTITCRASESVDNYGISFMNWFQQKPGKAPKLLIYAASNQGSGVPSRFSGSGSGTDFTLTISSLQPDDFATYYCQQSKEVPWTFGQGTKVEIKR
modifications: AuM linker-payload (maleimidoacetyl-β-Ala-Val-Ser(Glc)-PAB-MMAU) on the engineered cysteine (N296C); DAR 1.7
IC50, cytotoxicity, HL-60 cells, 5 days [5]: 16 nM

B6: LNCAuMb (cysteine engineered lintuzumab HC N296C conjugated with branched N-MAL-N-bis(Peg2)-Val-Ser(Glc)-PAB-MMAU), DAR 3.3 (antibody, human IgG1, kappa, V domains shown)
VH: B5 VH
VL: B5 VL
modifications: branched AuMb linker-payload (N-MAL-N-bis(Peg2)-Val-Ser(Glc)-PAB-MMAU) on the engineered cysteine (N296C); DAR 3.3
IC50, cytotoxicity, HL-60 cells, 5 days [6]: 2.2 nM

B7: FLCPeMala (cysteine engineered flanvotumab HC N299C conjugated with MA-Ac-β-Ala-EDA-PNU), DAR 2.0 (antibody, human IgG1, kappa)
heavy: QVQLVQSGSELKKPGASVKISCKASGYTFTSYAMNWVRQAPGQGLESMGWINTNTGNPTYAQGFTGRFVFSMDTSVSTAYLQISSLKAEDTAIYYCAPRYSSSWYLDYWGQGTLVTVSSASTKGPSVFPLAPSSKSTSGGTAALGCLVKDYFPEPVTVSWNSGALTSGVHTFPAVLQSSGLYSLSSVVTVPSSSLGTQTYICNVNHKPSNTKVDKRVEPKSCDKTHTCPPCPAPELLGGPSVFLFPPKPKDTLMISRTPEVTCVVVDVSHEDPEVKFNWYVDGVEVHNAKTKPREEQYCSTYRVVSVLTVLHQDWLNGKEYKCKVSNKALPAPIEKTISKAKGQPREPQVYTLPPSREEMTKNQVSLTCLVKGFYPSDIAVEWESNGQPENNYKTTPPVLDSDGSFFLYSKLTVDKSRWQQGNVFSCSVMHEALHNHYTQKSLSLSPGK
light: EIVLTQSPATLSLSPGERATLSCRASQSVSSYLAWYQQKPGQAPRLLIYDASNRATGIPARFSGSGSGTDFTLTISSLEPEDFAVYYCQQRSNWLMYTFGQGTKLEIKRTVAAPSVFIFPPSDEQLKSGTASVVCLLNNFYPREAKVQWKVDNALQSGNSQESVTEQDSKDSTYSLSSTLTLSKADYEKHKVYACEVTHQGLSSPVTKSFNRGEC
modifications: PeMala linker-payload (maleimidoacetyl-β-Ala-EDA-PNU) on the engineered cysteine (N299C); DAR 2.0
IC50, cell viability (PrestoBlue), IGR-1 cells [7]: 0.649 nM

B8: FLCPeMg (cysteine engineered flanvotumab HC N299C conjugated with MA-Ac-β-Ala-VS(GlcA)-EDA-PNU), DAR 2.2 (antibody, human IgG1, kappa)
heavy: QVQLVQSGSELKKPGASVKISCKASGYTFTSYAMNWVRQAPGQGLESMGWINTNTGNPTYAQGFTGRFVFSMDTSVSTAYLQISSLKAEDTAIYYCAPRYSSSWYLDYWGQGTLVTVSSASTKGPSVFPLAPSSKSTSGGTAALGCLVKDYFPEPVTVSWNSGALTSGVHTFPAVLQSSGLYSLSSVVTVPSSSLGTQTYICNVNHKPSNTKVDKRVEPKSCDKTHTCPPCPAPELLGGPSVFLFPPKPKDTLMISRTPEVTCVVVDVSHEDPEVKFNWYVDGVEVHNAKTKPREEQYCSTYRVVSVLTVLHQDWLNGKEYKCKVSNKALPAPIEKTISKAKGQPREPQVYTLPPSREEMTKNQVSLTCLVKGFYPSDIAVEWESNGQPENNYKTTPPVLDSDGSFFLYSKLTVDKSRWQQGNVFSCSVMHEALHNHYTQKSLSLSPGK
light: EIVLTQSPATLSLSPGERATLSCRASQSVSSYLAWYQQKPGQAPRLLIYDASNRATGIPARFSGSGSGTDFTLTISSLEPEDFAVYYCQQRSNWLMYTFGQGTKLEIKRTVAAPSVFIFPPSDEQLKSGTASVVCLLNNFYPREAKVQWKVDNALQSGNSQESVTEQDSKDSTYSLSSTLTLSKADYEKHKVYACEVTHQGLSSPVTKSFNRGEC
modifications: PeMg linker-payload (maleimidoacetyl-β-Ala-Val-Ser(GlcA)-EDA-PNU) on the engineered cysteine (N299C); DAR 2.2
IC50, cell viability (PrestoBlue), IGR-1 cells [8]: 0.417 to 0.484 nM
IC50, cell viability (PrestoBlue), SK-MEL-30 cells [8]: 4.3 to 10 nM

B9: FLCPeMcv (cysteine engineered flanvotumab HC N299C conjugated with MA-caproyl-Val-Cit-PAB-EDA-PNU), DAR 1.4 (antibody, human IgG1, kappa)
heavy: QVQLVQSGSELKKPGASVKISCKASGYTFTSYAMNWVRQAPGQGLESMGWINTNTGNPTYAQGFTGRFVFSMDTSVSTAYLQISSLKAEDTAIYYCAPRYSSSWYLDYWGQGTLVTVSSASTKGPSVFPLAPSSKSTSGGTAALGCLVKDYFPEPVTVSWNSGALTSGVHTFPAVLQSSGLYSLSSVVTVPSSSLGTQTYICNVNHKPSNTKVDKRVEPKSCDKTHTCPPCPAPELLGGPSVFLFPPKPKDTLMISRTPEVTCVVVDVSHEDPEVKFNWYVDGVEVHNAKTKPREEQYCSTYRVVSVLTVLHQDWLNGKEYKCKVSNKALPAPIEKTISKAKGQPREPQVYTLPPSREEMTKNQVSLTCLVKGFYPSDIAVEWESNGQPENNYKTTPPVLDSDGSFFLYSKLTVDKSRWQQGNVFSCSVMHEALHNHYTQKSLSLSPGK
light: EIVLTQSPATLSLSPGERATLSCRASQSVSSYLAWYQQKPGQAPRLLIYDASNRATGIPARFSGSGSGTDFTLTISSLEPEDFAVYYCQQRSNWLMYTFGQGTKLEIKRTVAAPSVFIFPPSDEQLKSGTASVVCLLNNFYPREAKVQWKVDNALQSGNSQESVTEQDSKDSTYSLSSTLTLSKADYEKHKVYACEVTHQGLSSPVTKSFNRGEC
modifications: PeMcv linker-payload (MA-caproyl-Val-Cit-PAB-EDA-PNU) on the engineered cysteine (N299C); DAR 1.4
IC50, cell viability (PrestoBlue), IGR-1 cells [9]: 0.414 to 0.716 nM
IC50, cell viability (PrestoBlue), SK-MEL-30 cells [9]: 2.8 to 4 nM
